Values of other authors in patent US20200306346A1 (ADOCIA, priority 2017, published 2020).

Key:
patients = details: in vivo
[1] = tested on: mammalian cells in culture

| Substance | inflammatory responses at the first dose (patients) | cytotoxicity [1] |
| --- | --- | --- |
| pegnivacogin | 3 out of 640 |  |
| fibrillated human glucagon: "potentially dangerous nature of these fibrils: fibrillated human glucagon being cytotoxic in mammalian cells in culture" |  | cytotoxic |
